Experimental findings from article PMC9811728 are described below.

The target of assay [1] is SC-CAT (SpyCatcher fused to the N-terminus of catalase) (Bacillus subtilis strain 168). The experiment in a line: SEC; elution profiles compared with molecular weight standards. In general terms: Size exclusion chromatography separates by hydrodynamic size, large species first.
In assay [2] the target is SC-LOX (SpyCatcher fused to the N-terminus of lactate oxidase) (Aerococcus viridans). Described as above.

As a reminder, the stoichiometry N is the number of molecules, sites or subunits per partner or assembly. As for “SC-CAT (SpyCatcher fused to the N-terminus of catalase) (enzyme)”, the stoichiometry N in assay [1] came out at 4.

In turn, “SC-LOX (SpyCatcher fused to the N-terminus of lactate oxidase) (enzyme)” displayed a stoichiometry N in assay [2] of 4.
